Results reported in PMC7439691, “SRSF1 regulates exosome microRNA enrichment in human cancer cells”.

How the values were obtained:
GST-SRSF1 [1] = target: T1, GST-SRSF1 (human, UniProt Q07955 1-248); assay: competition; EMSA vs IRD-800 miR-1246; did not alter binding; EMSA: 40 mM Tris pH 8.0, 30 mM KCl, 1 mM MgCl2, 0.001% NP40, 1 mM DTT, 5% glycerol, room temperature 40 min, 4% native gel; settings: protein: recombinant; tags: N-terminal GST (pGEX6P); no self-complementarity
GST-SRSF1 [2] = target: T1, GST-SRSF1; assay: competition; EMSA vs IRD-800 miR-1246; concentration-dependent; dissociation constant only in Fig. 6f; EMSA: 40 mM Tris pH 8.0, 30 mM KCl, 1 mM MgCl2, 0.001% NP40, 1 mM DTT, 5% glycerol, room temperature 40 min, 4% native gel; settings: protein: recombinant; tags: N-terminal GST (pGEX6P); no self-complementarity

T1 sequence (Q07955 whole entry): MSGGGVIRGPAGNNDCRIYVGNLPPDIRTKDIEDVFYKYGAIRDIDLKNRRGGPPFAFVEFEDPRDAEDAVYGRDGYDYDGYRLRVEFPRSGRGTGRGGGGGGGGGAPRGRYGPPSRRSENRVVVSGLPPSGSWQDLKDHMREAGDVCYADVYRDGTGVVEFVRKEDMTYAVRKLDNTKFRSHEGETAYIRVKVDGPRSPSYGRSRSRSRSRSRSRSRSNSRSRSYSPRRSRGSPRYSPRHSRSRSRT

UUGGACUAGGACUAGGAU (ssRNA) [Decoy mimic 1 (D1)]: no binding (GST-SRSF1 [1]).

AGGAAGGAAGGAAGGA (ssRNA) [Decoy mimic 2 (D2)]: binds (GST-SRSF1 [2]).
